The data set concerns O=C(CNC(=O)OCc1ccccc1)Oc1ccc([N+](=O)[O-])cc1. As to the kind of experiment: purified protein. Particulars: 20 mM Tris-HCl pH 8.0, 37 °C (methods; results pH 5.0), GST fusion.

Regarding “MD2-SBro (small-sized bromelain from MD2 pineapple) (Ananas comosus)”, the Km – broadly, the substrate concentration at which the rate is half of its maximum – is reported as 42.1 ± 3.81 µM; the Vmax (usually the top rate of the reaction or transport when substrate is in excess) came out at 0.432 µM/min; the kcat (usually the number of substrate molecules converted per active site and unit of time at saturation) turned out to be 0.2 ± 0.008 s⁻¹; the kcat/Km (usually the turnover number divided by the Michaelis constant) was 4750 ± 230 M⁻¹ s⁻¹.

The values above are taken from PMC9502857, “Heterologous Expression and Catalytic Properties of Codon-Optimized Small-Sized Bromelain from MD2 Pineapple” (Molecules, 2022).
